B1: Wild-type E. coli GroES, 15N-labeled form (native heptamer) (natural protein)
chain: MNIRPLHDRVIVKRKEVETKSAGGIVLTGSAAAKSTRGEVLAVGNGRILENGEVKPLDVKVGDIVIFNDGYGVKSEKIDNEEVLIMSESDILAIVEA
modifications: uniformly 15N-labeled
notes: GroES co-chaperonin of Escherichia coli, wild type; concentrations are of the heptamer; also called 15N-labeled GroES; P (protein); source: E. coli BL21(DE3), expression plasmid pETESwild, purified as described previously
B2: single-ring mutant (SR1) of GroEL (R452E, E461A, S463A and V464A) (natural protein, E. coli, UniProt P0A6F5 1-548, looked up)
chain: MAAKDVKFGNDARVKMLRGVNVLADAVKVTLGPKGRNVVLDKSFGAPTITKDGVSVAREIELEDKFENMGAQMVKEVASKANDAAGDGTTTATVLAQAIITEGLKAVAAGMNPMDLKRGIDKAVTAAVEELKALSVPCSDSKAIAQVGTISANSDETVGKLIAEAMDKVGKEGVITVEDGTGLQDELDVVEGMQFDRGYLSPYFINKPETGAVELESPFILLADKKISNIREMLPVLEAVAKAGKPLLIIAEDVEGEALATLVVNTMRGIVKVAAVKAPGFGDRRKAMLQDIATLTGGTVISEEIGMELEKATLEDLGQAKRVVINKDTTTIIDGVGEEAAIQGRVAQIRQQIEEATSDYDREKLQERVAKLAGGVAVIKVGAATEVEMKEKKARVEDALHATRAAVEEGVVAGGGVALIRVASKLADLRGQNEDQNVGIKVALRAMEAPLEQIVLNCGEAPAAVANTVKGGDGNYGYNAATEEYGNMIDMGILDPTKVTRSALQYAASVAGLMITTECMVTDLPKNDAADLGAAGGMGGMGGMGGMM
notes: GroEL chaperonin of Escherichia coli with four mutations at the contact sites between the two rings, forming a single heptameric ring; Non-labeled; heptameric single ring; concentrations are of the heptamer; The PDB entries hold the wild-type double-ring parent; also called L (ligand); heptameric SR1; source: expression plasmid constructed from pEL-WT; expressed and purified as described …

Assays:
Settings in all cases: both partners purified
[1] = molecular target: B2; test: NMR titration; 1H-15N HSQC of 21.4 uM 15N-labeled GroES with 0-42 uM SR1 (separate samples); 25°C; 3.0 mM ADP, 20 mM Tris-HCl, 100 mM KCl, 10 mM MgCl2, pH 7.5, 10% D2O; fit to single-step 1:1 binding (Eq 6)
[2] = molecular target: B2; test: NMR titration; 1H-15N HSQC of 21.4 uM 15N-labeled GroES with 0-42 uM SR1 (separate samples); 20°C; 3.0 mM ADP, 20 mM Tris-HCl, 100 mM KCl, 10 mM MgCl2, pH 7.5, 10% D2O; fit to single-step 1:1 binding (Eq 6)
[3] = molecular target: B2; test: NMR titration; 1H-15N HSQC of 21.4 uM 15N-labeled GroES with 0-42 uM SR1 (separate samples); 30°C; 3.0 mM ADP, 20 mM Tris-HCl, 100 mM KCl, 10 mM MgCl2, pH 7.5, 10% D2O; fit to single-step 1:1 binding (Eq 6)
[4] = molecular target: B2; test: NMR titration; 1H-15N HSQC of 21.4 uM 15N-labeled GroES with 0-42 uM SR1 (separate samples); 25°C; 3 mM ATP, 20 mM Tris-HCl, 100 mM KCl, 10 mM MgCl2, pH 7.5, 10% D2O; fit to single-step 1:1 binding (Eq 6)
[5] = molecular target: B1; test: NMR titration; van't Hoff plot of the Kb values from the NMR titrations at 20, 25 and 30°C; 3.0 mM ADP, 100 mM KCl, 10 mM MgCl2, pH 7.5

Row | Binder | Ka [1] | Ka [2] | Ka [3] | Ka [4] | dH [5]
1 | B1 | 189000 M⁻¹ | 141000 M⁻¹ | 223000 M⁻¹ | 2.35e+06 M⁻¹ | 
2 | B2 |  |  |  |  | 8.39 ± 1.15 kcal/mol

From article PMC5653362, “Formation of the chaperonin complex studied by 2D NMR spectroscopy” (PLoS ONE, 2017)
